According to PMC4615653 (RNA Biology, 2015):

Target: the molecule itself
Assay: zonal velocity sedimentation in a glycerol gradient

B1: CshA-His6 (natural protein, S. aureus, UniProt Q2FWH5 1-506, looked up)
chain: MQNFKELGISDNTVQSLESMGFKEPTPIQKDSIPYALQGIDILGQAQTGTGKTGAFGIPLIEKVVGKQGVQSLILAPTRELAMQVAEQLREFSRGQGVQVVTVFGGMPIERQIKALKKGPQIVVGTPGRVIDHLNRRTLKTDGIHTLILDEADEMMNMGFIDDMRFIMDKIPAVQRQTMLFSATMPKAIQALVQQFMKSPKIIKTMNNEMSDPQIEEFYTIVKELEKFDTFTNFLDVHQPELAIVFGRTKRRVDELTSALISKGYKAEGLHGDITQAKRLEVLKKFKNDQINILVATDVAARGLDISGVSHVYNFDIPQDTESYTHRIGRTGRAGKEGIAVTFVNPIEMDYIRQIEDANGRKMSALRPPHRKEVLQAREDDIKEKVENWMSKESESRLKRISTELLNEYNDVDLVAALLQELVEANDEVEVQLTFEKPLSRKGRNGKPSGSRNRNSKRGNPKFDSKSKRSKGYSSKKKSTKKFDRKEKSSGGSRPMKGRTFADHQK
stoichiometry N: 2
